Reference: PMC12728182 (2025)

What was measured:
[1] = target: T1, Human Rac1 (residues 1-177), GMPPNP-loaded (human, UniProt P63000 1-177); experiment: ITC; 15 °C
[2] = target: T1, Human Rac1 (residues 1-177), …; experiment: ITC; 15 °C, GMPPNP-loaded Rac1 (average)
[3] = target: T1, Human Rac1 (residues 1-177), …; experiment: ITC; 35 °C, GMPPNP-loaded Rac1 (average)
[4] = target: T1, Human Rac1 (residues 1-177), …; experiment: ITC; 10 °C, GMPPNP-loaded Rac1 (average)

Kd [1]: 21.6 µM
Kd [2]: 20.2 µM
Kd [3]: 21.7 µM
Kd [4]: 26.8 µM
B1: POSH_(315-380), shorter construct of human POSH comprising MRE1 and MRE2 (domain or fragment)
chain: GHMWSQASQNRHSMEISPPVLISSSNPTAAARISELSGLSCSAPSQVHISTTGLIVTPPPSSPVTTGPSF
